Laboratory results taken from the DeepSol protein solubility set.

experiment: soluble on expression in E. coli; label from the status in PepcDB or PDB records

Soluble on expression in E. coli, not soluble:
MLLRILIADDEPLARERLRVLLQAQMQHLEVVAEAENGEQVLHDCQRLNPDLVLMDIAMPGIDGLETARYLRYLPACPAVVFCTAYGDHALSAFDVEAIDYLMKPVRAERLHAALKRVQTFVAGRLREPQTSCDETPRTHLCVRIRGGLRLIPLDQVRYLQADEKYVVICHEQGEDLIEESLKSLEKEFSDRFVRIHRNCLIARAELTELRRCSDGQVQAVLRNVVTPLAVSRRCVPLLCDQLRLSAVLTGRWLEHHHHHH
RHLCESRQQAQRWIRAGAVHVNHIPIDKPGTLVAVDATIQVKAKPAYVSRGGEKLAHALGVFPVVVRDRVCLDGGISTGGFTDCLLQAGAQLVYGIDVGYGQVDWKLRQDPRLILRERTNLRYLTPADLYTDDGPRPDLGVVDVSFISLTKVLPALWELLLPPRELIALIKPQFEVGRDRLGKNGVVRDAKARQEAVDQVITAAAALGWQCYGVTPSPILGPAGNQEFLAHFCCGANGVLENEMVS
MPTLGFRFRAYTDEQTLRALKAQLKLACKIYNTLRWADIYFYQRDGKGLTQTELRQLALDLRKQDDEYKQLYSQVVQQIADRYYEARQRFFEGLARFPKEKKPHKYYSLVYPQYGWKILHVREIRKGSKKKLITLKLSNLGTFKVIVHRDFPLDKVKRVVVKLTRSERIYITFVVDHEFPKLPNTGKVVAIDVGVEKLLVTSDGEYFPNLRPYEKALWKVKHLHRELSRKKFLSNNWFKAKVKLARAYEYLKNLRTDLYMKLGKWFAEHYDVVVMEGIHAKQLVGKSLRSLRRRLSDVGFGELRGVLKYQLEKYGKKLILVNPAYTSKTCARCGYVKNDLSLSDRVFVCPNCGWIADRDYNASLNILRGSGSERPLVPVELRPLPVLWQGGAMKQEAPSFMRGLEHHHHHH
MGSDKIHHHHHHVSSPNIDIELDALKEAVSVALAHAKKLGSSAAEVAISKQQGLSVSTRTQEVETVEFNKDGALGITVYRGGCKGSSSTSDLSTDAIALAVKAADDIARYTSEDPFSGLADSALMAKNIRDLQLYYPQDIGAEELADLAIRAEKAGVDADTRIKYSDGATANAHTSAKVYANSHGFLQGYCSSRYSLSSVVIGEESDGNMQRDYDYTVSRKFADLLSPEEVGAKAAEKTLSRLDARKIATAKLPVLFAPEIATGLIGHLIGAISGGSLYRKSSFLLDSLHTHIFPDWFSIEEQPHILSGLASANYDSEGVATQDRRIIDRGQLETYLLTSYSARKLGMTNTGHAGGIYNWTLSHSNQTFADLIKAMNTGLIVTEVMGQGVNGVTGDYSRGAAGFYVENGVIQYPVEEITIAGNLKDMFIGIQGVAMDRDLRSSIRTGGILLSEMKIAGN
CQDYIPVKDQKVVDLMSRDVVAIDASDRLVDVVEFLCIDKEQLYPTSSMGIATRLTSLSLEERAKSMKVSKPQVLPVLENGQMVGVVTRQEVLKALRPVFGERLNLVEDKALETA
MGSDKIHHHHHHMTDSDLWIQVSDVRKHYAIGKSGLSDALVSAQSSANTGPGEKIAVDGISLTIRNGERLGIVGRNGAGKSTLLHMVAGLSAPTAGKIDVHGRVTAIMTLGLGLREHASGRENIYIDGEVQGKSRVEIDAVIDEIIEFAELGEFIDMPVRTYSTGMKSRLAFAMISCLEPEILIIDEALSAGDAKFSAKATRKIQEICAKGRIVILVSHSMASIQSMCNRCLWIDQGKIVMDGLPDQVCKAYIDAVRSEDEAKLLERFRDEASTRFSLDGWDVDALYVLQGDTATQRVLLEAGEDALIRTKIQVPTGCEEAQLVMSVTRLDGLVVTQRRIALDKYTEAGVARVQFAMRPLVLGQGVYRLEIAAELGQALVASRSMIFEVFVRQPPTGGVPMLLYPSEATASLLS
MLEIEIVYGLPDRQVLKTMQLAEGTTVRAAALQSGLDGIFEDLNLHSAPLGIFGKAVKDDTPLRDGDRIEVYRPLLIDPKEARRKRVQNQEE
MGSDKIHHHHHHMRSITTNYSDDGYNFAFLDEQTKRMVRRTLLKALSIPGYQVPFGGREMPLASGWGTGGIQITASVLGPNDRLKVIDQGADDTTNAVSIRRFFQTVADISVTESTEEATIIQTRHRVPEAPLTEGQILVYQVPEPEPLRKLIPRESETRKMHAYAEYGAMQVTLYENIARFGRIAKTYDYPAMINGRFLMSPSPIPKFDNPKMANNPAIQFWGAGREKRIYAVPPYTSVRSLDFDDHPFEVQTWQGCCALCGSTVSYLDEVITDDKGSRMFVCSDTDFCNTRQAQAAAQPNSAGGES
MKKILVGIPNYNNAAYIVDTIESVLKQSYSGVDVVVFDNASTDDSVEIIENTFLNNPNVLLKKSASNVGPTMNHNRCLEYAIDNEYDYLKVLSSDDVLLPNIIQEQFELLESEPRGAFATCNMIVTDDKLTKIKDHDFLGSNTDGNAVIKKCASHSANYIGGPSNGLLRVSCIGATRFSPEYKWLSDLKFYCDLLANRPFINTGTNGFFYRRHDNTDSSHVSKIKNLQRKESIRFSGEYGGNFLTKIKIYLRDIKSRLLLEHHHHHH

Soluble on expression in E. coli, soluble:
SVREANIKQATAEKQLKEAQGKIDVLQAEVAALKTLVLSSSPTSPTQEPLPGGKTPFKKGHTRNKSTSSAMSGSHQDLSVIQPIVKDCKEADLSLYNEFRLWKDEPTMDRTCPFLDKIYQEDIFPCLTFSKSELASAVLEAVENNTLSIEPVGLQPIRFVKASAVECGGPKKCALTGQSKSCKHRIKLGDSSNYYYISPFCRYRITSVCNFFTYIRYIQQGLVKQQDVDQMFWEVMQLRKEMSLAKLGYFKEEL
MNYVKIGVGGPVGSGKTALIEKLTRILADSYSIGVVTNDIYTKEDAEFLIKNSVLPKERIIGVETGGCPHTAIREDASMNLEAVEELVQRFPDIQIVFIESGGDNLSATFSPELADATIYVIDVAEGDKIPRKGGPGITRSDLLVINKIDLAPYVGASLEVMERDSKKMRGEKPFIFTNLNTNEGVDKIIDWIKKSVLLEGV
GSHMASGDATDITIYYKTGWTHPHIHYSLNQGAWTTLPGVPLTKSEYEGYVKVTIEAEEGSQLRAAFNNGSGQWDNNQGRDYDFSSGVHTLADGRILSGTPK
SFYSGLLTEGGRKETDMREAASLRQQRRMKQAVQFIHKDSADLLPLDGLKKLGSSKDMQPHNILQRRLMETNLSKLRSGPRVPWASKTNKLNQAKSEGLKKSEEDDMILVSCQCAGKDVKALVDTGCLYNLISLACVDRLGLKEHVKSHKHEGEKLSLPRHLKVVGQIEHLVITLGSLRLDCPAAVVDDNEKNLSLGLQTLRSLKCIINLDKHRLIMGKTDKEEIPFVETVSLNEDNTSEA
MNDAPPFDLDAYLARIGYTGPRNASLDTLKALHFAHPQAIPFENIDPFLGRPVRLDLAALQDKIVLGGRGGYCFEHNLLFMHALKALGFEVGGLAARVLWGQSEDAITARSHMLLRVELDGRTYIADVGFGGLTLTAPLLLEPGREQKTPHEPFRIVEADDHFRLQAAIGGDWRSLYRFDLQPQYEVDYSVTNYFLSTSPTSHFLSSVIAARAAPDRRYALRGNRLSIHHLGGRTEQTEIATAADLADTLQGLLGIIIPDRTAFEAKVRETKIVETNA
MKVDLNADAGESYGAFAYGHDREIFPLVSSANLACGFHGGSPGRILEAVRLAKAHGVAVGAHPGFPDLVGFGRREMALSPEEVYADVLYQIGALSAFLKAEGLPLHHVKPHGALYLKACRDRETARAIALAVKAFDPGLPLVVLPGTVYEEEARKAGLRVVLEAFPERAYLRSGQLAPRSMPGSWITDPEEAARRALRMVLEGKVEALDGGEVAVRADTLCIHGDNPNAPEVARAVREALEQAGVEVRAF
MAEKTVYRVDGLSCTNCAAKFERNVKEIEGVTEAIVNFGASKITVTGEASIQQVEQAGAFEHLKIIPEKEA
MRIIKFPEQISEDIIHYTFLDDIISYNCEKCRGSCCHVNNSLLLDAKTASFLKRTYLKDFIVSDDSVSLLSCGKKCWFHSELGCTINDLGLNKPLTCELYPFHIKKIQNFYIVSFTPCPTFQLNLGEGQRYKDIEDVVLRYIKTGVPVFSPSLHVSEERLKYEIEYQNNFKNTLSEYYRTKTADGTTEFKEYEKWYIYYLDFRWGSIPLSYTSSQANQFWNLYKRVCEDVYKKISYIRTDNIYFIIANQFNKTISKHFQLNFIDKE
MSLASLPISNFFTFNHQSTLFTKVKNFMGVKHIGDCMKALINGTIYTSFSPVKKVSGLVISNERVLYAGDSSTALRIAELAGGEIIDLKGKFVMPAFFDSHLHLDELGMSLEMVDLRGVKSMEELVERVKKGRGRIIFGFGWDQDELGRWPTREDLDVIDRPVFLYRRCFHVAVMNSKMIDLLNLKPSKDFDESTGIVRERALEESRKIINEKILTVKDYKHYIESAQEHLLSLGVHSVGFMSVGEKALKALFELEREGRLKMNVFAYLSPELLDKLEELNLGKFEGRRLRIWGVKLFVDGSLGARTALLSEPYTDNPTTSGELVMNKDEIVEVIERAKPLGLDVAVHAIGDKAVDVALDAFEEAEFSGRIEHASLVRDDQLERIKELKVRISAQPHFIVSDWWIVNRVGEERAKWAYRLKTLSSITKLGFSTDSPIEPADPWVSIDAAVNRYVVDPGERVSREEALHLYTHGSAQVTLAEDLGKLERGFRAEYIILDRDPLKEMKGIITITTDPNSSSVDKLAAALEHHHHHH
MRIAVASGKGGTGKTTVAVNLAVFNHIDLFDLDVEEPNDRIFIKGEAEEWPAYRKVPEVRENCNACGVCKDVCQYSAIYVIDKAYPLPELCHSCGACIYLCPEKAMEEVDYQTGKIVRVKSDITLTYGEMRIGEASAVFLIKQVKELMGKNAIIDSPPGASCPMVESVSDADYVILVAEPTPFGLHDLKIAAEVVSDLGLKFGVVVNKHGLPFDGIERYCKEGGVEILGKIPFSKEIAEKYSRGELLHDMKDFFVQLYEGIALEHHHHHH
MSANNTAKNMHPETRAVGSETSSLQASQDEFENLVRNVDVKSRIMDQYADWKGVRYRLGGSTKKGIDCSGFVQRTFREQFGLELPRSTYEQQEMGKSVSRSNLRTGDLVLFRAGSTGRHVGIYIGNNQFVHASTSSGVIISSMNEPYWKKRYNEARRVLSRSLEHHHHHH
SSAEAGGGIRKRHRTKFTAEQKERMLALAERIGWRIQRQDDEVIQRFCQETGVPRQVLKVWLHNNKH
MSLRSDSFEILRDCRALFLKHLGALLLDSGIISGSAIRAIQEGAGAYFDEMVSTTRRGSFSEEAHGLTSSRITLVGEDDLELGIRLDNLSARLFETTGGSLWRTHLRFVTLLRRPDLPKSANPIGPKGICQGLTTMFAASGASSIEQKLALLDRIEVYLLANLPGLYAEINDFLDRGGIEAAQATILGSPDGPKQADQSSANPLLALQQQLLARLPGGIASIQPPTGTGGAAASLLSQASLEQLIFRLNELDRQGAFRAQFKPGTSLSTESLIPELFSGSTAKASLPKALNSAELGIPSTATEGLAIDTLAIIFEAIFSEPTLPDTLKAAISSLQITLLKMAMKDASLFTDDKHPARLVIDRMGQAVLGLPTDVPARHPVCARLFEIASQLRSGNGDISAFQSALTQLDALVAERNNELAKSAAAYLPLLRQLDRRDEASIQTRHILDKLIEQKPPEAVQAFLNESWRKVLQLVWLENGPDSSQWQAHVTAIEELLWSFQPKTDPAERKSLAHRLPNILKLLKTGMERIGLPTEAQEAFLDDCFTLQTQALRAAPAAETGATSVIAATGLHASGSETVYGDVQSGQFVLNTLDFSDYQPGPARSLSCAIGDWLELRIDDSTTRVARICYISPNSQRTLLLNPDFGLALAIHPAILDRQLRAGEARIRSASSLFEIAASRALQKTTTNEGHHHHHH
